Biological target: T1, Gdi1 (yeast, UniProt P39958 1-451)
T1 sequence (looked up): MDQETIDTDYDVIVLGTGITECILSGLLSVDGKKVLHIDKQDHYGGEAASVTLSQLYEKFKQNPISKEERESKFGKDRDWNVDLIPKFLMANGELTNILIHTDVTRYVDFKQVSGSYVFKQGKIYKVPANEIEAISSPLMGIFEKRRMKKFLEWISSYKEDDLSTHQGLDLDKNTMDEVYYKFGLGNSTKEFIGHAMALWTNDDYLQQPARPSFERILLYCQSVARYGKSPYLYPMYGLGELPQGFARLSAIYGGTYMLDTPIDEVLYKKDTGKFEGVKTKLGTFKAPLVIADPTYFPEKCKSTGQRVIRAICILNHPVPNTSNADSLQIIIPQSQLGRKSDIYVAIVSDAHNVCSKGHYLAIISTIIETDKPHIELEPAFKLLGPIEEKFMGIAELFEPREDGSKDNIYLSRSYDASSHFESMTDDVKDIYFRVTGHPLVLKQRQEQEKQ
Assay: SEC

- binding result: binds
B1: prenylated Rab6-mantGDP (natural protein, S. cerevisiae, UniProt Q99260 1-215, looked up)
chain: MSRSGKSLTKYKIVFLGEQGVGKTSLITRFMYDTFDDHYQATIGIDFLSKTMYLDDKTIRLQLWDTAGQERFRSLIPSYIRDSRVAIIVYDITKRKSFEYIDKWIEDVKNERGDENVILCIVGNKSDLSDERQISTEEGEKKAKLLGAKIFMETSTKAGYNVKALFKKIAKSLPEFQNSESTPLDSENANSANQNKPGVIDISTAEEQEQSACQC
modifications: C-terminal cysteines prenylated (geranylgeranyl)
